Measured values taken from US5831013, “Capsid polypeptides and use to inhibit viral packaging” (The Research Foundation of State University of New York, dated 1998).

T1: ScVLa capsid protein Cap, full size (697 amino acids) (ScVLa virus of Saccharomyces cerevisiae)
T1 chain: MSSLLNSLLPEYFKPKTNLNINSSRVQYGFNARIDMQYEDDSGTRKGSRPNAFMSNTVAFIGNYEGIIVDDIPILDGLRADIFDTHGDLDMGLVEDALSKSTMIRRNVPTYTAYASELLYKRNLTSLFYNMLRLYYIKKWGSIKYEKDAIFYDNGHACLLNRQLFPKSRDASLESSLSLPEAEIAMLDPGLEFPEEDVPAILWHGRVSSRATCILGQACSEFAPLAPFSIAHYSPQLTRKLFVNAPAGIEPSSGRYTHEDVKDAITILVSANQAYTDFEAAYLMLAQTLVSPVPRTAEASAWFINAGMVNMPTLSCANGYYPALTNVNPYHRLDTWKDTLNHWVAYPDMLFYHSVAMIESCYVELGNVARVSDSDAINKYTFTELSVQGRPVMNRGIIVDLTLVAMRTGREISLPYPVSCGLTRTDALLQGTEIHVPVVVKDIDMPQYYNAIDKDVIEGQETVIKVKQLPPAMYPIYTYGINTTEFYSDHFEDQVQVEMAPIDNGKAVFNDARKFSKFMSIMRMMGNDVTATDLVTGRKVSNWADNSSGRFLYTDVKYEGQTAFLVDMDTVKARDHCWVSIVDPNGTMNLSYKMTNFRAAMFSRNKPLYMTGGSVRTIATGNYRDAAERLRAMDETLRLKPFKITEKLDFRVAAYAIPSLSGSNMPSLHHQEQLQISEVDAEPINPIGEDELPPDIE

B1: La Cap N-terminal fragment of pGLa1d4 (aa 1-428) (other)
chain: MSSLLNSLLPEYFKPKTNLNINSSRVQYGFNARIDMQYEDDSGTRKGSRPNAFMSNTVAFIGNYEGIIVDDIPILDGLRADIFDTHGDLDMGLVEDALSKSTMIRRNVPTYTAYASELLYKRNLTSLFYNMLRLYYIKKWGSIKYEKDAIFYDNGHACLLNRQLFPKSRDASLESSLSLPEAEIAMLDPGLEFPEEDVPAILWHGRVSSRATCILGQACSEFAPLAPFSIAHYSPQLTRKLFVNAPAGIEPSSGRYTHEDVKDAITILVSANQAYTDFEAAYLMLAQTLVSPVPRTAEASAWFINAGMVNMPTLSCANGYYPALTNVNPYHRLDTWKDTLNHWVAYPDMLFYHSVAMIESCYVELGNVARVSDSDAINKYTFTELSVQGRPVMNRGIIVDLTLVAMRTGREISLPYPVSCGLTRTDAL
B2: La Cap N-terminal fragment of nonsense mutant pGLa1m4 (I443O, aa 1-442) (other)
chain: MSSLLNSLLPEYFKPKTNLNINSSRVQYGFNARIDMQYEDDSGTRKGSRPNAFMSNTVAFIGNYEGIIVDDIPILDGLRADIFDTHGDLDMGLVEDALSKSTMIRRNVPTYTAYASELLYKRNLTSLFYNMLRLYYIKKWGSIKYEKDAIFYDNGHACLLNRQLFPKSRDASLESSLSLPEAEIAMLDPGLEFPEEDVPAILWHGRVSSRATCILGQACSEFAPLAPFSIAHYSPQLTRKLFVNAPAGIEPSSGRYTHEDVKDAITILVSANQAYTDFEAAYLMLAQTLVSPVPRTAEASAWFINAGMVNMPTLSCANGYYPALTNVNPYHRLDTWKDTLNHWVAYPDMLFYHSVAMIESCYVELGNVARVSDSDAINKYTFTELSVQGRPVMNRGIIVDLTLVAMRTGREISLPYPVSCGLTRTDALLQGTEIHVPVVVKD
B3: La Cap N-terminal fragment of nonsense mutant pGLa1m3 (K506O, aa 1-505) (other)
chain: MSSLLNSLLPEYFKPKTNLNINSSRVQYGFNARIDMQYEDDSGTRKGSRPNAFMSNTVAFIGNYEGIIVDDIPILDGLRADIFDTHGDLDMGLVEDALSKSTMIRRNVPTYTAYASELLYKRNLTSLFYNMLRLYYIKKWGSIKYEKDAIFYDNGHACLLNRQLFPKSRDASLESSLSLPEAEIAMLDPGLEFPEEDVPAILWHGRVSSRATCILGQACSEFAPLAPFSIAHYSPQLTRKLFVNAPAGIEPSSGRYTHEDVKDAITILVSANQAYTDFEAAYLMLAQTLVSPVPRTAEASAWFINAGMVNMPTLSCANGYYPALTNVNPYHRLDTWKDTLNHWVAYPDMLFYHSVAMIESCYVELGNVARVSDSDAINKYTFTELSVQGRPVMNRGIIVDLTLVAMRTGREISLPYPVSCGLTRTDALLQGTEIHVPVVVKDIDMPQYYNAIDKDVIEGQETVIKVKQLPPAMYPIYTYGINTTEFYSDHFEDQVQVEMAPIDNG
B4: La Cap N-terminal fragment of pGLa1d2 (aa 1-476) (other)
chain: MSSLLNSLLPEYFKPKTNLNINSSRVQYGFNARIDMQYEDDSGTRKGSRPNAFMSNTVAFIGNYEGIIVDDIPILDGLRADIFDTHGDLDMGLVEDALSKSTMIRRNVPTYTAYASELLYKRNLTSLFYNMLRLYYIKKWGSIKYEKDAIFYDNGHACLLNRQLFPKSRDASLESSLSLPEAEIAMLDPGLEFPEEDVPAILWHGRVSSRATCILGQACSEFAPLAPFSIAHYSPQLTRKLFVNAPAGIEPSSGRYTHEDVKDAITILVSANQAYTDFEAAYLMLAQTLVSPVPRTAEASAWFINAGMVNMPTLSCANGYYPALTNVNPYHRLDTWKDTLNHWVAYPDMLFYHSVAMIESCYVELGNVARVSDSDAINKYTFTELSVQGRPVMNRGIIVDLTLVAMRTGREISLPYPVSCGLTRTDALLQGTEIHVPVVVKDIDMPQYYNAIDKDVIEGQETVIKVKQLPPAMYPI
B5: La Cap fragment of pGLa1d7 (aa 6-443) (other)
chain: NSLLPEYFKPKTNLNINSSRVQYGFNARIDMQYEDDSGTRKGSRPNAFMSNTVAFIGNYEGIIVDDIPILDGLRADIFDTHGDLDMGLVEDALSKSTMIRRNVPTYTAYASELLYKRNLTSLFYNMLRLYYIKKWGSIKYEKDAIFYDNGHACLLNRQLFPKSRDASLESSLSLPEAEIAMLDPGLEFPEEDVPAILWHGRVSSRATCILGQACSEFAPLAPFSIAHYSPQLTRKLFVNAPAGIEPSSGRYTHEDVKDAITILVSANQAYTDFEAAYLMLAQTLVSPVPRTAEASAWFINAGMVNMPTLSCANGYYPALTNVNPYHRLDTWKDTLNHWVAYPDMLFYHSVAMIESCYVELGNVARVSDSDAINKYTFTELSVQGRPVMNRGIIVDLTLVAMRTGREISLPYPVSCGLTRTDALLQGTEIHVPVVVKDI
B6: La Cap N-terminal fragment of pGLa1d6 (aa 1-401) (other)
chain: MSSLLNSLLPEYFKPKTNLNINSSRVQYGFNARIDMQYEDDSGTRKGSRPNAFMSNTVAFIGNYEGIIVDDIPILDGLRADIFDTHGDLDMGLVEDALSKSTMIRRNVPTYTAYASELLYKRNLTSLFYNMLRLYYIKKWGSIKYEKDAIFYDNGHACLLNRQLFPKSRDASLESSLSLPEAEIAMLDPGLEFPEEDVPAILWHGRVSSRATCILGQACSEFAPLAPFSIAHYSPQLTRKLFVNAPAGIEPSSGRYTHEDVKDAITILVSANQAYTDFEAAYLMLAQTLVSPVPRTAEASAWFINAGMVNMPTLSCANGYYPALTNVNPYHRLDTWKDTLNHWVAYPDMLFYHSVAMIESCYVELGNVARVSDSDAINKYTFTELSVQGRPVMNRGIIVDL
B7: La Cap N-terminal fragment of pGLa1d5 (aa 1-418) (other)
chain: MSSLLNSLLPEYFKPKTNLNINSSRVQYGFNARIDMQYEDDSGTRKGSRPNAFMSNTVAFIGNYEGIIVDDIPILDGLRADIFDTHGDLDMGLVEDALSKSTMIRRNVPTYTAYASELLYKRNLTSLFYNMLRLYYIKKWGSIKYEKDAIFYDNGHACLLNRQLFPKSRDASLESSLSLPEAEIAMLDPGLEFPEEDVPAILWHGRVSSRATCILGQACSEFAPLAPFSIAHYSPQLTRKLFVNAPAGIEPSSGRYTHEDVKDAITILVSANQAYTDFEAAYLMLAQTLVSPVPRTAEASAWFINAGMVNMPTLSCANGYYPALTNVNPYHRLDTWKDTLNHWVAYPDMLFYHSVAMIESCYVELGNVARVSDSDAINKYTFTELSVQGRPVMNRGIIVDLTLVAMRTGREISLPYPV
B8: La Cap N-terminal fragment of nonsense mutant pGLa1m5 (S419O, aa 1-418) (other)
chain: MSSLLNSLLPEYFKPKTNLNINSSRVQYGFNARIDMQYEDDSGTRKGSRPNAFMSNTVAFIGNYEGIIVDDIPILDGLRADIFDTHGDLDMGLVEDALSKSTMIRRNVPTYTAYASELLYKRNLTSLFYNMLRLYYIKKWGSIKYEKDAIFYDNGHACLLNRQLFPKSRDASLESSLSLPEAEIAMLDPGLEFPEEDVPAILWHGRVSSRATCILGQACSEFAPLAPFSIAHYSPQLTRKLFVNAPAGIEPSSGRYTHEDVKDAITILVSANQAYTDFEAAYLMLAQTLVSPVPRTAEASAWFINAGMVNMPTLSCANGYYPALTNVNPYHRLDTWKDTLNHWVAYPDMLFYHSVAMIESCYVELGNVARVSDSDAINKYTFTELSVQGRPVMNRGIIVDLTLVAMRTGREISLPYPV
B9: La Cap fragment of pGLa1d8 (aa 98-443) (other)
chain: LSKSTMIRRNVPTYTAYASELLYKRNLTSLFYNMLRLYYIKKWGSIKYEKDAIFYDNGHACLLNRQLFPKSRDASLESSLSLPEAEIAMLDPGLEFPEEDVPAILWHGRVSSRATCILGQACSEFAPLAPFSIAHYSPQLTRKLFVNAPAGIEPSSGRYTHEDVKDAITILVSANQAYTDFEAAYLMLAQTLVSPVPRTAEASAWFINAGMVNMPTLSCANGYYPALTNVNPYHRLDTWKDTLNHWVAYPDMLFYHSVAMIESCYVELGNVARVSDSDAINKYTFTELSVQGRPVMNRGIIVDLTLVAMRTGREISLPYPVSCGLTRTDALLQGTEIHVPVVVKDI
B10: La Cap N-terminal fragment of pGLa1d1 (aa 1-502) (other)
chain: MSSLLNSLLPEYFKPKTNLNINSSRVQYGFNARIDMQYEDDSGTRKGSRPNAFMSNTVAFIGNYEGIIVDDIPILDGLRADIFDTHGDLDMGLVEDALSKSTMIRRNVPTYTAYASELLYKRNLTSLFYNMLRLYYIKKWGSIKYEKDAIFYDNGHACLLNRQLFPKSRDASLESSLSLPEAEIAMLDPGLEFPEEDVPAILWHGRVSSRATCILGQACSEFAPLAPFSIAHYSPQLTRKLFVNAPAGIEPSSGRYTHEDVKDAITILVSANQAYTDFEAAYLMLAQTLVSPVPRTAEASAWFINAGMVNMPTLSCANGYYPALTNVNPYHRLDTWKDTLNHWVAYPDMLFYHSVAMIESCYVELGNVARVSDSDAINKYTFTELSVQGRPVMNRGIIVDLTLVAMRTGREISLPYPVSCGLTRTDALLQGTEIHVPVVVKDIDMPQYYNAIDKDVIEGQETVIKVKQLPPAMYPIYTYGINTTEFYSDHFEDQVQVEMAPI

Biological target: T1, ScVLa capsid protein Cap, full size …
Test: cell-based or functional assay

Binder	Curing (%) of ScVLa
MSSLLNSLLP [La Cap N-terminal fragment of nonsense mutant pGLa1m6 (E11O, aa 1-10)]	< 10%
B1	50%
B2	100%
B3	100%
B4	100%
B5	< 10%
B6	< 10%
B7	< 10%
B8	< 10%
B9	< 10%
B10	100%
